Source: US12077566B2, “Mutants of recombinant immunoregulatory protein of Ganoderma lucidum and applications thereof” (priority 2017, dated 2024)
Substitutions are numbered along the chain they refer to. Names may count otherwise. “Also recorded” adds a separate entry of the source.

B1: rLZ-8 (K16A/S18A/K41A/D45A): alanine mutant of rLZ-8 at K16, S18, K41 and D45 (protein)
chain: MSDTALIFRLAWDVKALAFDYTPNWGRGNPNNFIDTVTFPAVLTAKAYTYRVAVSGRNLGVKPSYAVESDGSQKVNFLEYNSGYGIADTNTIQVFVVDPDTNNDFIIAQWN
B2: rLZ-8 (D70K): rLZ-8 mutant after surface potential optimization, D70K (protein)
chain: B1 chain with A16K, A18S, A41K, A45D, D70K
B3: rLZ-8 (L17K/D70K): rLZ-8 mutant after surface potential optimization, L17K and D70K (protein)
chain: B1 chain with A16K, L17K, A18S, A41K, A45D, D70K
B4: rLZ-8 (S18A): alanine mutant of rLZ-8 at S18 (protein)
chain: B1 chain with A16K, A41K, A45D
B5: mPEG-SPA-rLZ-8: rLZ-8 modified with methoxy polyethylene glycol succinimidyl propionate (conjugate, UniProt P14945 2-111, looked up)
Immunomodulatory protein Ling …: SDTALIFRLAWDVKKLSFDYTPNWGRGNPNNFIDTVTFPKVLTDKAYTYRVAVSGRNLGVKPSYAVESDGSQKVNFLEYNSGYGIADTNTIQVFVVDPDTNNDFIIAQWN
modifications: mPEG-SPA PEGylation
notes: rLZ-8 modified with methoxy polyethylene glycol succinimidyl propionate

These molecules were tested on human colon cancer SW480 cells (assay: Transplantation tumor model of human colon cancer SW480 cells). Details: after administration for 28 days.
Type: in vivo, BALB/c nude mice
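For Effect on survival time (in words) in this document: test animals were NOG mice aged 6-8 weeks.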
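For Mice survival rate after experiment in this document: test animals were NOG mice aged 6-8 weeks.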
Description: The RPMI1640 medium containing 10% fetal bovine serum is selected for the human colon cancer SW480 cells, and then is placed in the CO2 constant-temperature incubator at 37° C. for culturing. The SW480 cells at the logarithmic phase are digested by pancreatin and thereafter washed with serum-free RPMI1640 medium; 2×10^6 cells are inoculated below the back skin of the BALB/c nude mice; after the tumor blocks for observation are formed and have the diameter larger than 0.5 cm, the mice are divided into groups randomly; and the transplantation tumor model of human colon cancer SW480 cells are constructed in the BALB/c nude mice.

Molecule	Mice tumor weight after experiment	Tumor inhibitory effect (in words)
B1	3.12 ± 0.54 g	nearly no tumor inhibitory effect
B2	1.22 ± 0.29 g	obviously increased tumor inhibitory effect
B3	1.09 ± 0.33 g	obviously increased tumor inhibitory effect
B4	3.01 ± 0.39 g	nearly no tumor inhibitory effect

What follows are molecules tested on human liver cancer Hep G2 cells (assay: not given). Details: after administration for 28 days.
Excerpt: Two weeks later, the model mice are divided into groups randomly, and each group has 10 mice. The administration method is caudal vein injection, once a day, for consecutive 28 days (qd×28, i.v.). […] During the experiment, if the mouse dies, the dead mouse is weighted on the same day, and the tumor tissue is taken out to be weighted. For the living mouse after administration for 28 days, the mouse is killed, and then the tumor tissue is taken out to be weighted. The death time and death number of the mice in each group are recorded in detail; the survival conditions of the mice of the experimental groups and the control groups are analyzed, and the survival rate is calculated, wherein the survival rate is obtained through subtracting the death number of the mice from the total number of the mice, and then dividing the difference by the total number of the mice.

Molecule	Tumor inhibitory effect (in words)
B1	nearly no tumor inhibitory effect
B2	obviously increased tumor inhibitory effects
B3	obviously increased tumor inhibitory effects
B4	nearly no tumor inhibitory effect

Same assay, conditions: mouse, in vivo

Molecule	Mice weight after experiment	Effect on survival time of the mice (in words)
B1	17.3 ± 1.5 g	–
B2	20.7 ± 1.7 g	certain effect on lengthening the survival time
B3	21.0 ± 1.8 g	certain effect on lengthening the survival time
B4	17.6 ± 1.4 g	–

Same assay, conditions: qd×28 i.v.; rLZ-8 and mutants 0.5 mg/kg, sorafenib 50 mg/kg

Molecule	Mice tumor weight after experiment
B1	1.62 ± 0.72 g
B2	0.35 ± 0.21 g
B3	0.42 ± 0.23 g
B4	1.50 ± 0.71 g

Same assay, conditions: qd×28 i.v.; rLZ-8 and mutants 0.5 mg/kg, sorafenib 50 mg/kg; 10 mice per group

Molecule	Survival rate of mice after experiment
B1	30%
B2	80%
B3	90%
B4	30%

The molecules below were run against EGFR extracellular domain (Homo sapiens, UniProt P00533) (assay: Affinity test by surface plasmon resonance (Biacore T200, CM5 chip)). Details: EGFR extracellular domain coupled on CM5 chip, analyte 4-256 nM.
Type: binding
Description: The Biacore™ T200 equipment (a Surface Plasmon Resonance from GE Company) is selected. Through the surface plasma resonance technology, the affinity of the rLZ-8 and the mutants thereof to the EGFR extracellular domain is tested. The CM5 chip is adopted to serve as the affinity test chip.
The EGFR extracellular domain (with an amino acid sequence of 25-645) serves as the ligand for coupling; 1 mg EGFR freeze-dried powders are diluted with HEPES buffer solution to a concentration of 400 μg/mL and set aside. Three 1.5 mL EP tubes are prepared; 10 μL ligand are respectively added into the three tubes, then 90 μL 10 mM sodium acetate with different pH values of 4.5, 5.0 and 5.5 are respectively added into the tubes and are mixed completely and uniformly; and a final concentration of the ligand is 40 μg/mL. Moreover, 200 μL 50 mM sodium acetate is added into another 1.5 mL EP tube.
The ligand has a molecular weight of 70 kDa, the analyte (rLZ-8) has a molecular weight of 12.4 kDa. In theory, one rLZ-8 […] can bind with one EGFR, and thus the stoichiometric ratio Sm is equal to 1. Through the following equations, the coupling amount RL of the ligand is calculated.
Through the experimental experience, the optimal reagent coupling amount is set to be 3*RL, and the coupling amount is set to be 1700 RU. The EGFR extracellular domain is successively coupled on the CM5 chip.
In the affinity test, in order to eliminate the influence of different concentrations on the affinity, every of the rLZ-8 and the mutants thereof are tested with eight concentrations, wherein: seven concentrations are gradient concentrations, and the last one is the test reference concentration.

Molecule	Dissociation rate constant (koff)	Ka
B1	0.00423 s⁻¹	139 M⁻¹ s⁻¹
B2	–	203000 M⁻¹ s⁻¹
B3	–	215000 M⁻¹ s⁻¹
B4	–	3720 M⁻¹ s⁻¹

Same assay, conditions: compared with rLZ-8

Molecule	Affinity with the EGFR (in words)
B1	obviously decreased by 2-3 orders of magnitudes
B4	obviously decreased by 2-3 orders of magnitudes; also recorded: obviously decreased affinity

Same assay, conditions: compared with rLZ-8; listed as rLZ-8 (K16A/S18A/K41 A/D45A)

Molecule	Affinity with the EGFR (in words)
B1	obviously decreased affinity

What follows are molecules tested on tumor (assay: Early animal pharmacodynamic experiments of PEG-modified rLZ-8). Details: compared with rLZ-8.
Type: in vivo

Molecule	Antitumor effect (in words)
B5	decreased

Each molecule was assayed on Hep G2 cytomembrane (assay: In vitro cellular activity: binding with Hep G2 cytomembrane and entering the cell). Details: 100 μg/mL.
Type: cell-based

Molecule	Binding with the Hep G2 cytomembrane and entering the cell (in words)
B1	little binding amount with the Hep G2 cytomembrane and nearly cannot be observed to enter the cell

These molecules were tested on human breast cancer MCF7 cells (assay: Orthotopic transplantation tumor model of human breast cancer MCF7 cells). Details: after administration for 28 days.
Type: in vivo, BALB/c nude mice
Description: One day before the experiment, 0.5 mg of 17ß estradiol sustained release tablet is embedded below the neck skin of the BALB/c nude mice.

Molecule	Mice tumor weight after experiment	Tumor inhibitory effect (in words)
B1	1.02 ± 0.33 g	nearly no tumor inhibitory effect
B2	0.52 ± 0.28 g	obviously increased tumor inhibitory effect
B3	0.49 ± 0.26 g	obviously increased tumor inhibitory effect
B4	1.04 ± 0.30 g	nearly no tumor inhibitory effect

What follows are molecules tested on liver cancer, lung cancer, breast cancer and colon cancer (assay: Animal pharmacodynamic experiments of liver, lung, breast and colon cancer (summary statement)). Details: breast and colon cancer models together.
Type: in vivo, mice

Molecule	Tumor inhibitory effect (in words)
B1	nearly no tumor inhibitory effect
B2	obviously increased tumor inhibitory effects
B3	obviously increased tumor inhibitory effects
B4	nearly no tumor inhibitory effect

Each molecule was assayed on human lung cancer A549 cells (assay: Orthotopic transplantation tumor model of human lung cancer A549 cells). Details: after administration for 28 days.
Description: The human lung cancer A549 cell strain is selected. The NOG Mice of 6-8 weeks old are selected.
The DMEM containing 10% fetal bovine serum is selected for the human lung cancer A549 cells, and then is placed in the CO2 constant-temperature incubator at 37° C. for culturing. The A549 cells at the logarithmic phase are digested by pancreatin and thereafter washed with serum-free DMEM; the living cell concentration is adjusted to 1×10^8 cells per milliliter; 20 μL cell suspension is taken and inoculated at the lung of the NOG mice; two weeks later, the orthotopic transplantation tumor model of A549 lung cancer cells is constructed in the NOG mice.

Molecule	Mice survival rate after experiment	Mice tumor weight after experiment	Mice weight after experiment	Tumor inhibitory effect (in words)
B1	10%	1.22 ± 0.83 g	17.6 ± 1.4 g	nearly no tumor inhibitory effect
B2	80%	0.36 ± 0.28 g	21.1 ± 1.2 g	obviously increased tumor inhibitory effect
B3	80%	0.40 ± 0.26 g	21.2 ± 1.5 g	obviously increased tumor inhibitory effect
B4	30%	1.20 ± 0.70 g	17.8 ± 1.6 g	nearly no tumor inhibitory effect

Same assay, conditions: compared with the rLZ-8

Molecule	Effect on survival time (in words)
B2	can obviously lengthen the survival time
B3	can obviously lengthen the survival time
